The text below walks through data of the Immune Epitope Database (IEDB).

One assay deals with HLA-C*05:01. Kind of assay: IEDB peptide-MHC binding, purified MHC/direct/fluorescence; filed as Kd, often an IC50 or EC50 that approximates it; ≥ and ≤ were set here for values at or beyond the usual limits of such assays.
The target of a further assay is HLA-C*03:03. Described as above.
A further assay has as its target HLA-A*24:02. The assay can be described thus: IEDB peptide-MHC binding, purified MHC/competitive/fluorescence; ≥ and ≤ were set here for values at or beyond the usual limits of such assays.
For assay [1], the target named is HLA-A*03:01. The assay is described as above. To be noted: source organism: Variola virus.
For the next assay, the target named is HLA-B*07:02. Described as above.
For a further assay, the target named is HLA-A*11:01. Described as above. To be noted: source organism: Variola virus.
The next assay addresses HLA-A*31:01. Kind of assay: IEDB peptide-MHC binding, purified MHC/competitive/fluorescence; filed as Kd, often an IC50 or EC50 that approximates it; ≥ and ≤ were set here for values at or beyond the usual limits of such assays. Conditions: source organism: Bacillus anthracis str. A0488.
Assay [2] has as its target HLA-A*24:03. The assay is described as above.
For the next assay, the target named is HLA-B*39:01. The description is as above.
A further assay concerns the target HLA-B*57:01. The description is as above.
A further assay deals with HLA-B*27:03. The assay is described as above.
In assay [3] the target is HLA-A*02:03. The assay is described as above. To be noted: source organism: Yersinia mollaretii ATCC 43969.
A further assay addresses HLA-B*46:01. The assay is described as above.
Assay [4] concerns the target HLA-A*02:01. Described as above.
The target in a further assay is HLA-B*18:01. Described as above.
Assay [5] concerns the target HLA-A*03:01. Described as above.
The next assay addresses HLA-B*15:17. The description is as above.
The target of assay [6] is HLA-B*15:01. The assay is described as above.
Another assay has as its target HLA-A*68:02. Described as above.
The target in another assay is HLA-A*26:01. Described as above.
For a further assay, the target named is HLA-B*51:01. The description is as above.
Assay [7] concerns the target HLA-A*02:19. The assay is described as above.
The target of assay [8] is HLA-A*02:12. The description is as above.
Assay [9] concerns the target HLA-A*02:01. The assay can be described thus: IEDB peptide-MHC binding, purified MHC/competitive/fluorescence; ≥ and ≤ were set here for values at or beyond the usual limits of such assays.
Another assay concerns the target HLA-A*23:01. Kind of assay: IEDB peptide-MHC binding, purified MHC/direct/fluorescence; filed as Kd, often an IC50 or EC50 that approximates it; ≥ and ≤ were set here for values at or beyond the usual limits of such assays.
The target of assay [10] is HLA-A*24:03. The description is as above.
Assay [11] addresses HLA-A*02:03. Described as above. Conditions: source organism: Orthohantavirus andesense.
In assay [12] the target is HLA-A*03:01. Described as above. Conditions: source organism: Orthohantavirus andesense.
The target of assay [13] is HLA-A*02:19. The assay is described as above. To be noted: source organism: Orthohantavirus andesense.
Assay [14] has as its target HLA-A*02:12. The description is as above. To be noted: source organism: Orthohantavirus andesense.
For assay [15], the target named is HLA-B*15:01. Kind of assay: IEDB peptide-MHC binding, purified MHC/competitive/fluorescence; ≥ and ≤ were set here for values at or beyond the usual limits of such assays. Conditions: source organism: Sudan ebolavirus.
The target of the next assay is HLA-C*12:03. Kind of assay: IEDB peptide-MHC binding, purified MHC/direct/fluorescence; filed as Kd, often an IC50 or EC50 that approximates it; ≥ and ≤ were set here for values at or beyond the usual limits of such assays. Conditions: source organism: Homo sapiens.
In the next assay the target is HLA-A*02:11. Kind of assay: IEDB peptide-MHC binding, purified MHC/competitive/fluorescence; filed as Kd, often an IC50 or EC50 that approximates it; ≥ and ≤ were set here for values at or beyond the usual limits of such assays. Conditions: source organism: Escherichia coli.
Another assay addresses HLA-A*69:01. Described as above. Conditions: source organism: Escherichia coli.
Setting [16] is: source organism: Yersinia mollaretii ATCC 43969.
[17] abbreviates: source organism: Sudan ebolavirus.
Where [18] appears, read: source organism: Zaire ebolavirus.
Setting [19] is: source organism: Cryptosporidium parvum Iowa II.
The mark [20] stands for this setting: source organism: Orthohantavirus andesense.
[21] abbreviates: source organism: Vibrio vulnificus CMCP6.
Setting [22] is: source organism: Escherichia coli.
Setting [23] is: source organism: human gammaherpesvirus 4.

For SLDDYNHLV, the Kd is 0.278 µM with HLA-C*05:01 (source organism: Homo sapiens) and no less than 20 µM with HLA-C*03:03 (source organism: Homo sapiens).

For IPLASLTPK, the IC50 with HLA-A*24:02 (source organism: Variola virus) was found to be 22.1 µM; with HLA-A*03:01 [1], 66.6 µM; with HLA-B*07:02 (source organism: Variola virus), 5.73 µM; with HLA-A*11:01 it was 6.66 µM.

On to HFFESLYAR, for which the Kd in the assay with HLA-A*31:01 is 0.0016 µM; with HLA-A*24:03 [2] (source organism: Bacillus anthracis str. A0488), 4.13 µM.

For MMWIPGWFG, the equilibrium dissociation constant (Kd) in the assay with HLA-B*39:01 (setting [16]), with HLA-B*57:01 (setting [16]), in the assay with HLA-B*27:03 (setting [16]), in the assay with HLA-A*02:03 [3], in the assay with HLA-B*46:01 (setting [16]) and in the assay with HLA-A*02:01 [4] (setting [16]) was no less than 20 µM each time. Moreover, the Kd with HLA-B*18:01 (setting [16]), with HLA-A*03:01 [5] (setting [16]), with HLA-B*15:17 (setting [16]), in the assay with HLA-B*15:01 [6] (setting [16]), with HLA-A*68:02 (setting [16]) and with HLA-A*26:01 (setting [16]) was no less than 20 µM throughout. For the same sequence, the dissociation constant Kd is no less than 20 µM in the assay with HLA-B*51:01 (setting [16]), no less than 20 µM with HLA-A*02:19 [7] (setting [16]), 0.185 µM in the assay with HLA-A*02:12 [8] (setting [16]) and no less than 20 µM with HLA-A*24:03 [2] (setting [16]).

Take YTILNRKAI: the IC50 with HLA-A*24:02 (setting [17]) is 9.02 µM; with HLA-A*02:01 [9] (setting [17]), no less than 226 µM; with HLA-B*07:02 (setting [17]) it was 20.1 µM.

For NIKRTLAAM, the IC50 with HLA-A*02:01 [9] (setting [18]) is no less than 458 µM; with HLA-B*07:02 (setting [18]), no less than 128 µM.

Regarding GFKRGIFIF, the Kd is 0.002 µM in the assay with HLA-A*23:01 (setting [19]) and no more than 0.001 µM with HLA-A*24:03 [10] (setting [19]).

In the case of RWASGVSEI, the Kd with HLA-B*39:01 (setting [20]), with HLA-B*57:01 (setting [20]), in the assay with HLA-B*27:03 (setting [20]), with HLA-B*46:01 (setting [20]), with HLA-B*18:01 (setting [20]) and in the assay with HLA-A*26:01 (setting [20]) was no less than 20 µM in each case. For the same sequence, the Kd is no less than 20 µM with HLA-B*51:01 (setting [20]); 0.0002 µM with HLA-A*24:03 [2] (setting [20]); no less than 20 µM in the assay with HLA-A*02:03 [11]; no less than 20 µM with HLA-A*03:01 [12]; no less than 20 µM in the assay with HLA-A*02:19 [13]; no less than 20 µM with HLA-A*02:12 [14].

Consider GLMHNQNAL, for which the concentration for half-maximal inhibition (IC50) in the assay with HLA-A*24:02 (setting [17]) is 36.6 µM; with HLA-A*02:01 [9] (setting [17]), 3.85 µM; with HLA-B*15:01 [15] it was 11.5 µM; in the assay with HLA-B*07:02 (setting [17]), 12.4 µM.

Take CIIGTVSKF: the dissociation constant (Kd) with HLA-A*23:01 (source organism: Amur virus) was 0.097 µM; with HLA-A*24:03 [10] (source organism: Amur virus) it was 0.049 µM.

Take SVYFAAFAF: the Kd was no less than 20 µM in the assay with HLA-B*46:01 (source organism: Vibrio vulnificus YJ016), 0.016 µM with HLA-A*23:01 (setting [21]) and 0.066 µM with HLA-A*24:03 [10] (setting [21]).

QYTRNSFYI showed a dissociation constant Kd with HLA-A*24:03 [2] (source organism: Escherichia coli 536) of 0.0003 µM.

In turn, KAFQDVLYV gave a dissociation constant Kd with HLA-C*12:03 of no more than 0.001 µM.

For the sequence MFWKLPPWL, the dissociation constant (Kd) in the assay with HLA-B*39:01 (setting [22]) is no less than 20 µM; with HLA-B*57:01 (setting [22]) it was no less than 20 µM; in the assay with HLA-B*27:03 (setting [22]) it was no less than 20 µM; with HLA-B*46:01 (setting [22]) it was no less than 20 µM; in the assay with HLA-A*02:11, 0.0136 µM; with HLA-A*02:01 [4] (setting [22]), no less than 20 µM. Moreover, the Kd with HLA-A*69:01, in the assay with HLA-B*18:01 (setting [22]), with HLA-A*03:01 [5] (setting [22]), with HLA-B*15:17 (setting [22]), with HLA-B*15:01 [6] (setting [22]) and with HLA-A*68:02 (setting [22]) was no less than 20 µM each time. For the same sequence, the dissociation constant (Kd) in the assay with HLA-A*26:01 (setting [22]), in the assay with HLA-B*51:01 (setting [22]), with HLA-A*02:19 [7] (setting [22]) and with HLA-A*02:12 [8] (setting [22]) was no less than 20 µM each time.

Turning to RVGRVNPGT, the figures for the IC50 with HLA-A*02:01 [9] (source organism: Variola virus) and in the assay with HLA-B*07:02 (source organism: Variola virus) were 11.4 µM and 21.4 µM, respectively.

As for YSQGAFTPL, the results for the dissociation constant Kd in the assay with HLA-C*05:01 (setting [23]) and with HLA-C*03:03 (setting [23]) were 3.08 µM and no more than 0.001 µM, respectively.
